# Values quoted from earlier work, collected in PMC8469563.
# Target: C1q (Homo sapiens) (UniProt P02745)
# UniProt P02745, sequence (P02745 23-245, chain 1 of 3): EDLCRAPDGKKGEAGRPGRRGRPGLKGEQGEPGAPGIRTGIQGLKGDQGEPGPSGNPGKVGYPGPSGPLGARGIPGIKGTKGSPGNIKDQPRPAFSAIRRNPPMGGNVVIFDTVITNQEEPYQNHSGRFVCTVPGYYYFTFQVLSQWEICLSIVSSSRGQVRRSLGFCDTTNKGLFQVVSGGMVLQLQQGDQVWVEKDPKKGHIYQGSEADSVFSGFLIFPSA
# UniProt P02745, sequence (P02746 28-253, chain 2 of 3, further chain): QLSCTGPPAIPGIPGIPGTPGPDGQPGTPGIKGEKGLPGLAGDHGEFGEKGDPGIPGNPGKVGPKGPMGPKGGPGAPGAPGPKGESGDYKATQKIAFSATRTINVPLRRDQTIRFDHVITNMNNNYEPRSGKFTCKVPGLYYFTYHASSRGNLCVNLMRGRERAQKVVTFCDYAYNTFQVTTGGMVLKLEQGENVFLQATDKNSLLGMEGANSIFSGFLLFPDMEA
# UniProt P02745, sequence (P02747 29-245, chain 3 of 3, further chain): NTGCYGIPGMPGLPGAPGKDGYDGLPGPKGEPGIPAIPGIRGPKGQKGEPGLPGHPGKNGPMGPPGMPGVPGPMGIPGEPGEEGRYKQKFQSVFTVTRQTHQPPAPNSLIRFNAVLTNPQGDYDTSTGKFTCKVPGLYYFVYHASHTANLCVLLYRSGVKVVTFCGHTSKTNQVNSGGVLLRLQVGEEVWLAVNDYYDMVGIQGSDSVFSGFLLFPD
substance,measurement,value
HMGB1 (from UniProt P09429),Kd,200 nM
